Bridge positions count the residues as written; N and C are the ends. Square brackets hold non-standard residues; d marks the D form. Ends that are not written are not given here. I, II: the chains in the order shown. 1Nal = N[C@@H](Cc1cccc2ccccc12)C(=O)O; PEG = not defined here
T1: human erythropoietin receptor on Ba/F3-huEPOR cells (human, UniProt P19235 25-508)
T1 sequence (looked up): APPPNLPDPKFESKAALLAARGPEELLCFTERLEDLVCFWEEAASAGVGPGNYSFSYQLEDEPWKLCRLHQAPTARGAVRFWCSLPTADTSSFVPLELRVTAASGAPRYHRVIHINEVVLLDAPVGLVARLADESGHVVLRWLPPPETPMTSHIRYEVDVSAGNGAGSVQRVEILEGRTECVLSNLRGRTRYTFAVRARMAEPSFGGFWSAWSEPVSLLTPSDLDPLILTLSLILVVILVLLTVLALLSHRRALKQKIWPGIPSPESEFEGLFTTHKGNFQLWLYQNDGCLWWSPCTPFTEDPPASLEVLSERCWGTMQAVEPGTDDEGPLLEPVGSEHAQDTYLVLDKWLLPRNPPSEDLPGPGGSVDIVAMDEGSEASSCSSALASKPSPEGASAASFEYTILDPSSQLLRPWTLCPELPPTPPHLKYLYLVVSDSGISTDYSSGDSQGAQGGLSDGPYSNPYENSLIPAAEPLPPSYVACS

B1: Peptide dimer of Example 5, Code No. 20531 (R1 = R2 = GTYSCHFGPLTBVCRPQ, n1 = 0, n2 = 0, lysine linker, free cysteine thiols) (peptide)
peptide: GTYSCHFGPLT[1Nal]VCRPQ
modifications: cysteine pairing not given here; also: dimer: C-termini of both chains bound to lysine linker
B2: Peptide dimer of Example 6, Code No. 19957 (R1 = R2 = GGTYSCHFGPLTBVCRPQGG, n1 = 0, n2 = 0, lysine linker, intramolecular disulfide in each chain) (peptide)
peptide: GGTYSCHFGPLT[1Nal]VCRPQGG
modifications: disulfide 6-15; also: dimer: C-termini of both chains bound to lysine (amide) linker
B3: Peptide dimer of Example 7, Code No. 17286 (R1 = R2 = GGTYSCHFGPLTBVCRPQGG, n1 = 1, n2 = 0, lysine linker, intramolecular disulfide in each chain) (peptide)
peptide 1: GGTYSCHFGPLT[1Nal]VCRPQGG
peptide 2: GGTYSCHFGPLT[1Nal]VCRPQGG
modifications: disulfide I:6-I:15, II:6-II:15; not fully specified (C-terminus); also: dimer: C-termini joined by lysine linker, R1 through βAla, R2 directly, which chain is R1 not given here
B4: Peptide dimer of Example 3, Code No. 20526 (R1 = R2 = GGTYSCHFGPLTBVCRPQGG, n1 = 1, n2 = 1, lysine linker, free cysteine thiols) (peptide)
peptide: GGTYSCHFGPLT[1Nal]VCRPQGG
modifications: not fully specified (C-terminus); cysteine pairing not given here; also: homodimer: C-termini joined via beta-alanine to a lysine linker
B5: monomeric compound having the sequence GGTYSCHFGPLTBVCRPQGG (SEQ ID NO: 7) (peptide)
peptide: GGTYSCHFGPLT[1Nal]VCRPQGG
modifications: cysteine pairing not given here
B6: Peptide dimer of Example 8, Code No. 19261 (R1 = R2 = GGTYSCHFGPLTBVCRPQGG, n1 = 1, n2 = 1, lysine linker, intramolecular disulfide in each chain) (peptide)
peptide: GGTYSCHFGPLT[1Nal]VCRPQGG
modifications: disulfide 6-15; not fully specified (C-terminus); also: dimer: each chain joined through βAla to lysine linker
B7: Peptide dimer of Example 11, Code No. 17762 (R1 = R2 = GGTYSCHFGPLTBVCRPQGG, both N-termini PEGylated, n1 = 1, n2 = 1, lysine linker) (peptide)
peptide: {PEG}-GGTYSCHFGPLT[1Nal]VCRPQGG
modifications: not fully specified (C-terminus); cysteine pairing not given here; reading uncertain; also: homodimer: C-termini joined via beta-alanine to a lysine linker, PEG size not given here
B8: Peptide dimer of Example 4, Code No. 20532 (R1 = R2 = GGTYSCHFGPLTBVCRPQ, n1 = 0, n2 = 0, lysine linker, free cysteine thiols) (peptide)
peptide: GGTYSCHFGPLT[1Nal]VCRPQ
modifications: cysteine pairing not given here; also: homodimer: C-termini joined through a lysine linker
B9: Peptide dimer of Example 1, Code No. 17218 (R1 = R2 = GGTYSCHFGPLTBVCRPQGG, n1 = 0, n2 = 0, lysine linker, free cysteine thiols) (peptide)
peptide: GGTYSCHFGPLT[1Nal]VCRPQGG
modifications: cysteine pairing not given here; also: dimer: two identical chains joined at C-termini through a lysine amide linker
B10: Peptide dimer of Example 10, Code No. 17644 (R1 = R2 = GGTYSCHFGPLTBVCRPQGG, both N-termini acetylated, n1 = 1, n2 = 0, lysine linker) (peptide)
peptide 1: Ac-GGTYSCHFGPLT[1Nal]VCRPQGG
peptide 2: Ac-GGTYSCHFGPLT[1Nal]VCRPQGG
modifications: cysteine pairing not given here; also: dimer: C-termini joined through lysine linker, one chain (R1) via a beta-alanine, the other (R2) directly
B11: Peptide dimer of Example 12, Code No. 20952 (R1 = R2 = GGTYSCHFGPLTBVCRPQGGK, both N-termini acetylated, n1 = 0, n2 = 0, linker =O) (peptide)
peptide: Ac-GGTYSCHFGPLT[1Nal]VCRPQGGK
modifications: not fully specified; also: cysteine state not given here
B12: Peptide dimer of Example 2, Code No. 20528 (R1 = R2 = GGTYSCHFGPLTBVCRPQGG, n1 = 1, n2 = 0, lysine linker, free cysteine thiols) (peptide)
peptide 1: GGTYSCHFGPLT[1Nal]VCRPQGG
peptide 2: GGTYSCHFGPLT[1Nal]VCRPQGG
modifications: cysteine pairing not given here; also: dimer: C-termini joined through lysine linker, one chain (R1) via a beta-alanine, the other (R2) directly

Key:
[1] = biological target: T1, human erythropoietin receptor on …; assay: cell-based or functional assay
[2] = biological target: T1, human erythropoietin receptor on …; assay: cell-based or functional assay; remark: listed apart in the source

Binder | EC50 (nM), bioassay (Ba/F3-huEPOR cell proliferation) [1] [nM] | EC50, bioassay (Ba/F3-huEPOR cell proliferation) [2] [nM]
B1 | 100 | –
B2 | 0.5 | –
B3 | 0.4 | –
B4 | 5 | –
B5 | – | 200
B6 | 0.3 | –
B7 | 0.4 | –
B8 | 50 | –
B9 | 6 | –
B10 | 5 | –
B11 | 2 | –
B12 | 6 | –

Source: US20060270831A1 (AFFYMAX, published 2006)
